This is an account of results in publication PMC9464187 (2022).

Experiment [1] addresses HLA-A*11:01 presenting the KRAS G12D decamer peptide …. The experiment in a line: SPR; biotinylated pHLA (400-500 RU) immobilised on a streptavidin-coated CM5 chip, Biacore T200; multi cycle steady state analysis, ten 2-fold dilutions of TCR starting at 50 µM; one site fit.
Experiment [2] has as its target HLA-A*11:01 presenting the KRAS^G12D decamer peptide … (human | not stated). Briefly: SPR; biotinylated pHLA (400-500 RU) immobilised on a streptavidin-coated CM5 sensor chip, Biacore T200; multi cycle steady state analysis, 10-point titration of JDI TCR from 50 µM to 0.1 µM; one site total least squares fit.
For experiment [3], the target named is HLA-A*11:01 presenting the KRAS^G12D decamer peptide …. The experiment in a line: SPR.
The target in experiment [4] is T1, KRAS WT peptide on HLA-A*11:01 (human).
T1 peptide: VVVGAGGVGK
Briefly: SPR; >4000-fold weaker than to KRAS G12D; soluble, with an engineered disulfide between the constant domains. On the technique in general: SPR reads the build-up and loss of mass on a sensor chip optically.

For experiment [5], the target named is T2, KRAS G12D peptide on HLA-A*11:01 (human).
T2 peptide: VVVGADGVGK
The experiment in a line: SPR single cycle kinetics; soluble, with an engineered disulfide between the constant domains.

As for JDI TCR (parent TCR), the Kd turned out to be 62.8 µM in experiment [1] and 63 µM in experiment [2]. In turn, JDI TCR (parent TCR) JDIa9bwt displayed an other: t1/2 in experiment [3] of 0.3 h. Same read-out and setting: the figure for JDI TCR (parent TCR) JDIa96b35 is greater than 20 h.

B1: JDIa41b1 TCR (TCR)
alpha TRAV19*01 CDR3: AMSVPSGDGSYQFT
beta TRBV6-2*01 CDR3: ASKVGPGQHNSPLH
On to B1, for which, in experiment [4], binding was put at a Kd of 3 µM. Also, in experiment [5], the t1/2 came to 1.2 h.

Broadly, the Kd is a measure of binding affinity in units of concentration. Higher therefore signals a looser complex.
